From the DeepSol protein solubility set

Assay: soluble on expression in E. coli; label from the status in PepcDB or PDB records

Sequence | soluble on expression in E. coli
MEPPLILIVEDEKDIARFIELELQAEGYRTEVAHDGITGLSKFREVSPNLVILDLMLPVMDGIEVAKRIRKTSNVPILILTAKDRVEDKVAGLDAGADDYLVKPFSIEELLARVRAHLRRVTPAITGEIRVADLIINLEGREVFRGNRRIELSNKEFELLELLAKNPGKVFSRYEIEEKVWPGYQGGSNVVDVYIGYLRKKLEAGGERRLIHTVRGVGYVLRED | soluble
GMCVEKTPWELVIDFHGHTCPDIALGYRIAQLAQREMGIRPAPDSECLVKAYTQSCALDAIQVLNKATIGRHALIIEETHRYMYQFHFTGTQDIHQFTVSPAVLDHLETLRHPDLSPRERQNKVLEGVQYVLTLEESAFCHYDKIPGQLSKIV | soluble
MKEDLLDIVCCPLDKHDLTLDADATEDGEVMAGTLTCTDCGETYPIEDGIPNLLPPDMRDDAESASALEHHHHHH | not soluble
MGSDKIHHHHHHMSLLSVSDVGKAYKTYRSELQRIAHWFFLPTKASSEHWVLKHINFAIEPGEAIGIIGQNGAGKSTLLKMITGTLQPTQGRVQVNGRIAAILELGMGFNPELSGRQNVYHAAGLMGFDVQQINDVIDDIEAFAEIGEYFDEAVRTYSSGMQMRVAFAVATAFRPEILIVDEALSVGDSYFQHKSFERIREFQRLGTSLLIVSHDRGAIQSLCSRALLLENGSIIKDGPPEQVMDYYNALIAEKENSTVQVKQLADGTVQTQSGSGEATIGTVALYDMQGTPVEFVAVGDKVTLSVQVEVHAPIPELVVGYVIKDRLGQHVFGTNTHHLGKAQKALETGEKLEYRFDFEMNLGPGSYSVAVALHANEVHIGSNYEWRDLALVFNVVNTSKPQFVGMAWVPTAVECIR | not soluble
MAHHHHHHMLCLVRAAEPKPYTALSPEALYEAVQPHDHTLRPSPFIAHQALMDFYKACDGYYGVNREEVDVQQLTSFEHKKTHGGASSGNNSGSNSGATLSSLLSGSASAAPSSSLSAAAGAPPLPPLPSPDDPNLAEKLNDYRIAQLRRNAQHVDNTVYHAHNSSNGGSNSNVANAGSSGVCHFYRTPEGCQRGAACPFTHLDKHGQPVNRVAKS | soluble
SAASGESGTSGGGGSTEEAFMTFYSEVKQIEKRDSVLTSKNQIERLTRPGSSYFNLNPFEVLQIDPEVTDEEIKKRFRQLSILVHPDKNQDDADRAQKAFEAVDKAYKLLLDQEQKKRALDVIQAGKEYVEHTVKERKKQLKKEGKPTIVEEDDPELFKQAVYKQTMKLFAELEIKRKEREAKEMHERKRQREEEIEAQEKAKREREWQKNFEESRDGRVDSWRNFQANTKGKKEKKNRTFLRPPKVKMEQRE | soluble
MAALMTPGTGAPPAPGDFSGEGSQGLPDPSPEPKQLPELIRMKRDGGRLSEADIRGFVAAVVNGSAQGAQIGAMLMAIRLRGMDLEETSVLTQALAQSGQQLEWPEAWRQQLVDKHSTGGVGDKVSLVLAPALAACGCKVPMISGRGLGHTGGTLDKLESIPGFNVIQSPEQMQVLLDQAGCCIVGQSEQLVPADGILYAARDVTATVDSLPLITASILSKKLVEGLSALVVDVKFGAGAVFPNQEQARELAKTLVGVGASLGLRVAAALTAMDKPLGRCVGHALEVEEALLCMDGAGPPDLRDLVTTLGGALLWLSGHAGTQAQGAARVAAALDDGSALGRFERMLAAQGVDPGLARALCSGSPAERRQLLPRAREQEELLAPADGTVELVRALPLALVLHELGAGRSRAGEPLRLGVGAELLVDVGQRLRRGTPWLRVHRDGPALSGPQSRALQEALVLSDRAPFAAPLPFAELVLPPQQ | soluble
MAQVLRGTVTDFPGFDERADAETLRKAMKGLGTDEESILTLLTSRSNAQRQEISAAFKTLFGRDLLDDLKSELTGKFEKLIVALMKPSRLYDAYELKHALKGAGTNEKVLTEIIASRTPEELRAIKQVYEEEYGSSLEDDVVGDTSGYYQRMLVVLLQANRDPDAGIDEAQVEQDAQALFQAGELKWGTDEEKFITIFGTRSVSHLRKVFDKYMTISGFQIEETIDRETSGNLEQLLLAVVKSIRSIPAYLAETLYYAMKGAGTDDHTLIRVMVSRSEIDLFNIRKEFRKNFATSLYSMIKGDTSGDYKKALLLLCGEDD | soluble
MKFFILSTTLLLIGVQCGYPVAQNSYPTPPPPSDSYVVPKQSYPTAPGAYATKHSFPQNSAPVTAPPLPPPPAPSGYSSDDASVTSNVAASPPAPPTDAQIVGSSSSSTNYGGSSPTYGGSLSSGGIVGGNSLNYGTYNSASAGTPAATGAGASSGYRRRAKAKARARARARTAPNRRLHQRRHLQPIRRFRFQKKAKQ | soluble
MAHHHHHHMVELTEEEAMNFLNIALGEAEKSLQKELKEMPIFCLLINEEKKIISSSYNYTNESKNGSRHSELIAIDKYIYDGNYEQMKNLNLIKCYNNNENSIEKSIQDYFVSLDEKKNSELKINNYENINDKYMNEKYNKIQERINNLKKCCIVVTCEPCIMCVYALKLIGIKNIYFCCLNERFGGCGSVLSLHKKYEDINVHYIEHPECSEKSINLMKAFYKAGNPSAPEEKRKRPIS | not soluble
MTSGTSVINDKVLQYETFISEVLRRDLQKVLEQRDAVYEKIAQYLQLKNTIQSIQESGSKELKTDVDLGCNFYVQAHVPDASRIYVAVGYGFFVEFTHAEALKFIEKKTNQLTEYTEVLTKDAAKIKANIRMVLEGLRELQGLKDLPEDRRREVF | not soluble
MTPRIEVAAPKEPITINMNVKIEHEIIIKADKDVEELLETRSDLFLEHHHHHH | not soluble
MHDFVGFMNKISQINRDLDKYDHTINQVDSLHKRLLTEVNEEQASHLRHSLDNFVAQATDLQFKLKNEIKSAQRDGIHDTNKQAQAENSRQRFLKLIQDYRIVDSNYKEENKEQAKRQYMIIQPEATEDEVEAAISDVGGQQIFSQALLNANRRGEAKTALAEVQARHQELLKLEKSMAELTQLFNDMEELVIEQQ | soluble
MGSDKIHHHHHHMIFSMSSLHDMRFICLRTAPLKNSAYLLSALLIIACQPTSPTEALTSENNEMVDMPLISADSVTITPDHILSIKPTRYQPSLGLQGRIDSIKQINLVAGQPLTVEQVLVSENQWVKKGTPLLTVRRQEIFNKPTMSDDPATDVDASLNTTASNIDRASASDNTSQTSDLITLRARFSGRVENLSVQAGQKIEAQTALLKLSDATELHFISTLPIEAESQISVGQTVNFTAEDRVDKFTGQVSKVQALKQPIQLLVYVNVINNEVSRNQLAPGMQVTGRVDYGQIEVGTIVPKNALHNVDLTQIQVPPYKPLRSLTANIWIIGQDQRLTRQPIEVIEYDPLTKQYLIAGISSDSLICLANLPIESKGKKVVVS | not soluble
MIKIPQAGRDLETIAVIGAGTIGSAISISLAKAGYHVISTRRRPDLNAGLKAYGITVTSDNVQAVTSADMVILTLKPADLVSEMKKLSQILEGKIVVSMAAAVPIRVIRHILPRSFIVRSMTNIAAEVNAGYTPFCTLEEDEGKISFVSRVLGVFGETERVDEKYMDALTAL | not soluble
MNVREPEITSVTDLTDKELTQQWKIIDWKRVKEVVNNLQSRIASAAKSGNWKTVNKLSRLLTRSFYAKLLSIRKVTTNKGSRTPGIDGIIWSSSADKMRAALQLTNKGYRAKPLTRKYIRKKSGKLRPLSIPTMYDRAMQTLHSLVLGAIESAAGDKTSFGFKPYRSTKDAYAYLHLCLSKKVSPEWIVEGDIKACFDEISHNWILDNIPIDKRILKEFLKAGYIENYHLFPTEKGTPQGGPISPIIGNMSLNGLENALAMRFYSRSDGTIDKSHQNRRKVNYVRFADDLVVTADSPETALEIIDVIQAFLDPRGLKLSEEKTLVTNISEGFNFLGWNFRKYKGKLLPKPSKDSQKEIIKKIRDVLHKAKAWDQDRLIQTLNPIIRGWAEYHNHAVSSAIFNKLDEIVYNMLISWAKRRHSNKGFTWITTKYWHKSGKRKYVFCTELQTLERFSNAKIVRQRLASLNKNPFIDKEYFEQWKFMEYHRKKRITNPNSVLNLEHHHHHH | not soluble
MSDGQYGPISAGIIRSITDKSYERRKAAALDVEKLVRDLFNNNQLSQLDKCLSVLGELINSGNSNQRKGGLIGMAAASIALGNKNAPPYTAKLVEPIIPCFHDADLQIRYYACESLYNIAKICKTSVLAHFEDIFDVLWRVTADSDQNVRGGAELLNRLITEIVLSEQEFDIAILMSLIRDRIYTQTSSNRRFILEWLNTIDSAPFFSFCNYISEISDGLFKMLGEQAPAVRDLCETVLGNFLTAIRSKPESLSLEDRIQMINVLVVHTHENEPFLARKLSLIWLEEFVKLYKTDLLVMLSTCLVGILPSIVETELKADAVNRLLMALVGEAKLEQDILDKTIEVLLKYIKYDVVETRVTVLNWIRHLHSSMPGQLFVHMHQIFPVLLNTLSDTSDEVLLLDLFLISNICQSESAPDQVDVSTFGLNETELKQVSHISPFLIKFVLSLLEMFRTEPTLLRERGVLIIRQLCLLLEPAHIYRVICVLLERESKHNFAQEMVSTLHGVLLTATELFILRDELRALSNESSRSLFECIFRVWSNRPIALLGLCLLSQHYQQAADIALLLSQVDITVDVLLEIDKLVNLVESPVLAYVRMDLLSSIHRPPLCTVLSALLMLLPQSEAFVTLHKRLQAVPALVSIDNSPYAPKVPPCRIDFPPLMLHFKAALARRQTEVRSRHRDLLSGVVTQMKNVKI | not soluble
MGHHHHHHSHKPVPWVEKYRPKCVDEVAFQEEVVAVLKKSLEGADLPNLLFYGPPGTGKTSTILAAARELFGPELFRLRVLELNASDERGIQVVREKVKNFAQLTVSGSRSDGKPCPPFKIVILDEADSMTSAAQAALRRTMEKESKTTRFCLICNYVSRIIEPLTSRCSKFRFKPLSDKIQQQRLLDIAKKENVKISDEGIAYLVKVSEGDLRKAITFLQSATRLTGGKEITEKVITDIAGVIPAEKIDGVFAACQSGSFDKLEAVVKDLIDEGHAATQLVNQLHDVVVENNLSDKQKSIITEKLAEVDKCLADGADEHLQLISLCATVMQQLSQNC | not soluble
MPVLHNRISNDALKAKMLAESEPRTTISFYKYFHIADPKATRDALYQLFTALNVFGRVYLAHEGINAQISVPASNVETFRAQLYAFDPALEGLRLNIALDDDGKSFWVLRMKVRDRIVADGIDDPHFDASNVGEYLQAAEVNAMLDDPDALFIDMRNHYEYEVGHFENALEIPADTFREQLPKAVEMMQAHKDKKIVMYCTGGIRCEKASAWMKHNGFNKVWHIEGGIIEYARKAREQGLPVRFIGKNFVFDERMGERISDEIIAHCHQCGAPCDSHTNCKNDGCHLLFIQCPVCAEKYKGCCSEICCEESALPPEEQRRRRAGRENGNKIFNKSRGRLNTTLCIPDPTELEHHHHHH | soluble
MGSDKIHHHHHHMIWKLSERKDWNSLEQQFGWVRDMNQVPQHTVHHAEGSVAVHTRMVLEALLRQPAYPMLPEQEREILWAAALLHDVEKRSTSVDEGNGQVTSKNHAKRGETTVRTLLYRDIPAPFNIREHIASLVRHHGLPIWLMEREDPLKRACEASLRLDTSLLKQLTVADICGRISTDKEVLLEATEFFEMFCREQQCWGKAREFANGTARFHYFHTPRSYIDYVPHDDFKCGVTLLVGLPGMGKDYYIESRCADMPVVSLDAIRRKHKFSPTDKAANGWVAQTAKEQARIYLRKGQDFIWNATNVSRQRRTQLIDLFITYGARVKIVYIEKPYSVWRRQNSTREYEVPETVLDKMLGRLEVPQLTEAHEVVYVVEE | not soluble
LTDIRKKAATTLEKQIKQELNQLYMEKAIFSVHFESDKTELTESGQDSVVFYMSTNPGEPLKPLAKIASGGELSRMMLALKTIFSRHQGITSIIFDEVDTGVSGRVGQAIAEKIYAVSVGSQVLCISHLPQVAAMANHHYYITKKVQNKRTTTSVTILKGEQKVEEISRMIAGIEVTELTKQHAKEMIQQAEKVKQTY | not soluble
